Here are results for 20 sequences from the DeepSol protein solubility set.

This data set in a line: soluble on expression in E. coli; label from the status in PepcDB or PDB records.
On to “MGSDKIHHHHHHMRNCIIAQSGGPTAVINASAVGIYEKNLETKYFDKVYFGINGIEGILNKNIIDSDSLNKDNVLNLKQTPSSGLGSCRYKLADYKINSYDYDRVINILDEYEIDTLFYIGGNDSMDTVMKFSQYCKNTTCKIKFIGIPKTIDNDLLGTDNCPGFGSAAKLISTLIMETYLDFSIYKNNGIFIVETMGRDTGWLAASSSLARLNDTPLVDLIYLPEIDFYEDKFIEDVRKIFKEKNKAYIVASEGIRDKYGNFICEQKTSAHDKFGHSQLGGVSNYLKNLIVSSSITTRVKTLELGVIQRCAMHLASDTDLKQAAEVGAYGIELSKKGYTGVMAIINRTCNNPYKYEVSHTDISKIANKTKYFPKEWINEECNYITDEALNYLYPLIQGKPDIKYKNGLPYFSIIY”, for which the “soluble on expression in E. coli” value is “not soluble”.

With “DVQKKTFTKWINARFSKSGKPPINDMFTDLKDGRKLLDLLEGLTGTSLPKERGSTRVHALNNVNRVLQVLHQNNVELVNIGGTDIVDGNHKLTLGLLWSIILHWQVKDVMKDVMSDLQQTNSEKILLSWVRQTTRPYSQVNVLNFTTSWTDGLAFNAVLHRHKPDLFSWDKVVKMSPIERLEHAFSKAQTYLGIEKLLDPEDVAVRLPDKKSIIMYLTSLFEVLPQ”, the “soluble on expression in E. coli” value is recorded as “soluble”.

As to “GMALQEEFIDVNGTRVFQRKMVTDSNRRSIALFHGYSFTSMDWDKADLFNNYSKIGYNVYAPDYPGFGRSASSEKYGIDRGDLKHAAEFIRDYLKANGVARSVIMGASMGGGMVIMTTLQYPDIVDGIIAVAPAWVESLKGDMKKIRQKTLLVWGSKDHVVPIALSKEYASIISGSRLEIVEGSGHPVYIEKPEEFVRITVDFLRNL”, the “soluble on expression in E. coli” value is on record as “soluble”.

With “MGSDKIHHHHHHMVRIALDPTPFHHDYDLLDFPDVTARLGYEYMQLTPHVDFGPFFRHPKADDDLVAALKKRAKDAGVTIPALLPVQRISWPEETQRVAAVRNIKRIIQLAVDLEVDTLNTEFSGRPERSEDSEDAFYRSMEELLPILEKEGIKFNIDPHPDDFVENGIEAWRVIRGLNSKQVGFVYVAPHSFHMGDQAEAILPAVGDRLGAVYLSDTFDHHKSHGLRYITNPPGNAVRVHQHLKIGDGDVNFEEIFSLLRSTGYLDREDALLVSNVFAEDEAADEVSRYQLEKIRSLIENA”, the “soluble on expression in E. coli” value is “not soluble”.

On to “MAHHHHHHMLWRKQCACRTPEHPTKGYRSVNDSLQLMEIRRTSTPLNYKLLRAYQFLPYEVPFPPHTFASQQWREGENVEAHYALYQTCLCMYLVSSDMSLTVTNMLPALGIHEHDVHKVSRTLCAARCST”, for which the “soluble on expression in E. coli” value is recorded as “not soluble”.

On to “MSLTVLILRCIMVKSTTRKSAKSDRRRYNRIARFYDLFETPMELMNFRKWRKMLFDLIKAEKGLVLEIGAGTGKNIPHYPSNVVALDISEKMLERAVRRAKESGKKVDFLLADAENLPFRSNSFDVVFTTFVFCSVDDPVRGLREAFRVLKKGGRAYFLEHMLPKSRFLHPLFNLLNPIFRAFGPEINRRTDENIQRAGFQIVKEYMLFGSVFRLIVAEKPLDSVDEASGYSLKRSESSDSSNFRRFIGQSLLPLRLTQLLREGHHHHHH”, for which the “soluble on expression in E. coli” value was “not soluble”.

On to “MGSDKIHHHHHHMFDLNDLFYFVQVVECRGFAPASRKLGIPKSKLSRRIAGLEERLGVSLIHRSTRKFAVTESGRDYYGHCVAMLVEADAAEEAIQRSKSEPQGKVVISCPPAMAAMGINEAIAGFMAAHPKVQVHIESTNRRVDPLIENIDIALRVRFPPLEDDGLVVKTLGHSAQRLVAHPDLAALLPANASFEALARLPSLDVTSSTPEHRWLLENGPGHYVEVRHAPRLVSSDLDAILQAALQGVGVAQLPEILVREALQQGRMVELFDAHRPKCGILHAVFVSRRGLLPAVRGLLDAFESSFTELTHNPESLYCSLHRTNSRIQGD”, for which the “soluble on expression in E. coli” value is given as “not soluble”.

As for “MGSDKIHHHHHHMNLSRVGKHGTGMWNYSKNIADMLHESGFLDSIICSKDHVEYFSNRYKDPKVDIIITPEIVSNTMKVSKFRPLIWLSYSYFLGCKLVLSKKKKDVALLSTTHHSIPFFKNQFITIHDLRPAFYPDSKLQEIYFSHYLPRKVKELRGVFTVSETVKNEIEEHMGVARSDIQVVYNSVDPSLRPDGTDNSEQATIKNTFLMVGASWKHKNAHSFLKNFLAYHKDNYSAVIVCGQTDYFDELKSLVATLGLENNVTFKHHISEQELSSLYKTSFALVYPSLSEGFGIPPIEAMSLSLPVIVSDIPVFKEILGEAAVYVDPNVRESWEHAVDTLKVSRENVIDTGLQRVNLYSYERCKDMLMLALNNINEKSR”, the “soluble on expression in E. coli” value was “not soluble”.

Regarding “MSLKIHCLKLKNKELNKEVAFYLTSIIRQALKNTEYKDQISSTVLPDIKIKLPIDSRGTPDWNYMERYRDREGHHHHHH”, the “soluble on expression in E. coli” value is listed as “soluble”.

In the case of “MSYYHHHHHHDYDIPTTENLYFQGAMGSMNTRNTRSKQRAPCGVSSSVKPRLDLIEQAPNPVYDRHPACITLPERTCRHPLTDLEANEQLGRCEDSVKNRFDRVIPFLQVVAGIPLGLDHVTRVQELAQSSLGHTLPEELLKDNWISGHNLKGIFGYATAKALTAATEQFSRKIMSEKDDSASAIGFFLDCGFHAVDISPCADGRLKGLLPYILRLPLTAFTYRKAYAGSMFDIEDDLAQWEKNELRRYREGVPNTADQPTRYLKIAVYHFSTSDPTHSGCAAHGSNDRAALEAALTQLMKFREAVENAHCCGASIDILLIGVDTDTDAIRVHIPDSKGFLNPYRYVDNTVTYAQTLHLAPDEARVIIHEAILNANRSDGWAKGNGVASEGMRRFIGQLLINNLSQIDYVVNRHGGRYPPNDIGHAERYISVGDGFDEVQIRNLAYYAHLDTVEENAIDVDVGITIFTKLNLSRGLPIPIAIHYRYDPNVPGSRERTVVKARRIYNAIKERFSSLDEQNLLQFRLSVQAQDIGSPIEEVASA”, the “soluble on expression in E. coli” value is given as “soluble”.

In the case of “MSGSGMTPMLQATPEQARTLGAEEPIRPGQDRLAHAPADHPELPQPKIGILLANLGTPDNYDYWSMRRYLNEFLSDKRVIDYPAWKWQPLLQILILSKRPFSSGANYKLIWNHDKGESPLMTITKDQTAAIAAEIRSLYGNRVMVDFCMRYGNPSTESRVRAMVEAGCEKILFFPLYPHYAGATSATANDEFFRAMMKEKRQPAVRTVPEYYDNPLYIDALAQSVERAYAQLDHRPDVLVASYHGMPKRYLMAGDPYHCQCAKTSRLLRERLGWEKGAIDTTFQSVFGPEEWLKPYTVEHVAELARAGKKRIAVIAPAFSADCIETLEEINGEIREAFEEAGGEEFTYIPCLNDDEAHIRALVSVIEDNLAGWLARG”, the “soluble on expression in E. coli” value was “not soluble”.

In the case of “MGSDKIHHHHHHMLSVTRYSIKNVRLKPWVKFIWYFETKSNILLNNKLLPTDSIDIILNLSDVMEYKIENQDYTASNMHFNGIRDKHGFIIQHGNIRVIGISFYPFGLYPFLKIPISEFNRQIVDLEAVSQLFAKKLEESLNPIQSVEKIVLYLEEVLLSILEEDLISNKYVKLLNSFIYVNRYSNIKAFCDDTNINIKTLERICLKYTGYTPKILKRIYRFKMASNQLIYNYKDDELFDFIYENEYYDQAHFIKEFKKFSGTSPIKFSGENKTIKENIKYSYL”, the “soluble on expression in E. coli” value is on record as “not soluble”.

On to “MSLARQNYHSEVEAAVNKQINIELYASYVYLSMSFYFDRDDVALPNIAKFFKEQSDEEREHATELMRVQNLRGGRVVLQDIQKPENDEWGTALKAFEAALALEKFNNESLLKLHSTAGNHNDAHLTDFIEEKYLDEQVKSINEFARMVANLKRVGPGVGEYVFDKEHFSD”, for which the “soluble on expression in E. coli” value is recorded as “soluble”.

“SAAVGAEARGAWCVPCLVSLDTLQELCRKEKLTCKSIGITKRNLNNYEVEYLCDYKVVKDMEYYLVKWKGWPDSTNTWEPLQNLKCPLLLQQFSNDKHNYLSQVITSEEAERRGQFYDNKGITYLFDLDYESDEFTVDAARYGNVSHFVNHSCDPNLQVFNVFIDNLDTRLPRIALFSTRTINAGEELTFDYQMKGSGDISSDSIDHSPAKKRVRTVCKCGAVTCRGYLN”: the “soluble on expression in E. coli” value is listed as “soluble”.

On to “MPKRKLKTPESTETTKICKKNDNFSDFWSEKLDEIGSAHLADTKSRTKSAVKHELTGIGSSSIYKGTRDLQLPKSEDLSNFGWNEGVLEHLQVLLEEIEVDEKKEEQIEAERGAILKFTAEYRDLLAITGDQGGYRSIYCAHIIQHLIRNKNLIIGNKRKLEIASTQEGGADEETIESCRDSGFVRPVVLVLCAFKKDAYDIINRLRRILHGDDEGKSEVWNKNRFEEEYSGPTELPTTRADFPDDHKELLLGNNDDAFRIGLAISKKVLKLYEKFEKADILVCSPLGLRMILNGDDGNEAHLISSINMTIVDRTDIMLQQNWENLQLIFSHLHSQPSKIDVDISRVRKLYLDGQSRHFSQLLMFSRYSHELFTSLMLQNSQNHRGLVIAKPKQSGTLSNIEIPLCQELHKFEVKDPNETSDLRFKYFVDKIMPSLIPRTLIVIPSYFDFVRVRNHLKKAEESFVMCHEYATRAKVDRAREMFFHERKSYLVVTERWYFFNRRHLTGVHRVVFYQLPSHPLFYSEFINMSDAETSQRFLAVLLLCKYDRIRLENTFGTEMAAAVMSNKQAVQAIVSQ”, for which the “soluble on expression in E. coli” value is on record as “not soluble”.

“MGSDKIHHHHHHMFKPMASVFTNHQIAGHYRAIERAQKCVVPFHFEIQGQEYPKPKPERNWLRRLSGTSSEKYAMVELTPTKVVLWSPEGRNLGEMPLSAVRRIQIGAIRCHVTEGLDPRHAFRATIFVLTDSGNYYFANSDMEVLPAICKFAHEHQVPVEDPLRLIPLLKVGWRVAAVTLHETYAQLVAHTGYPADKV”: the “soluble on expression in E. coli” value was “not soluble”.

For the sequence “MSLGEEAAGEGGEAEKTITINVGLLVDETGPTSDVGKGYSLGAELAFKYFNEKGIYTKDGVRVNINYIKRDYAYNPTTAEEYYREFRDRYGVIAIIGWGTADTEKLSDQVDTDKITYISASYSAKLLVKPFNFYPAPDYSTQACSGLAFLASEFGQGKLALAYDSKVAYSRSPIGAIKKAAPSLGLQVVGDYDLPLRATEADAERIAREMLAADPDYVWCGNTISSCSLLGRAMAKVGLDAFLLTNVWGFDERSPQLIGEGGYGKVFGISPFIYPMFGQDVEGIQTIFEAARMNGVSEDQINLRVVQGFVNVWLLIKAIESVTSQDLQERGGEALKEALEANTFDLGGITADTIDYEPGFHLAYRKVFIIKLGENGELQLMGKFEAPSQVDCARYTIEEGHHHHHH”, the “soluble on expression in E. coli” value is on record as “soluble”.

For “GSMEPPNLYPVKLYVYDLSKGLARRLSPIMLGKQLEGIWHTSIVVHKDEFFFGSGGISSCPPGGTLLGPPDSVVDVGSTEVTEEIFLEYLSSLGESLFRGEAYNLFEHNCNTFSNEVAQFLTGRKIPSYITDLPSEVLSTPFGQALRPLLDSIQIQPPGGSSVGRPNGQS”, the “soluble on expression in E. coli” value is reported as “soluble”.

For the sequence “MGSDKIHHHHHHMRFLAYFGHLNIDVLISVDSIPREGSVNVKDLRPRFGGTAGNFAIVAQKFRIPFDLYSAVGMKTHREYLAMIESMGINTGHVEKFEDESGPICYIATDGKKQVSFMHQGAMEKWKPQLADEYEYVHFSTGPNYLDMAKSIRSKIIFDPSQEIHKYSKDELKKFHEISYMSIFNDHEYRVFREMTGLSSPKVTTIVTNGERGSSLFMDGKKYDFPAIPSSGDTVGAGDSFRAGLYLALYNRRSIEKGMIYGTIIAHHVIDDGIENFSLNMEDLERETENYRRMFTKRS”, the “soluble on expression in E. coli” value is given as “not soluble”.

“GPGSMNFVPLYRSILKGIHTAKQHPYHLQDIRFILSYPLVKPVYYATKPNSELKQLEPLQGIDTPLLVRTCLEDLRRAFMSVPSKDMSVAQQFVYMRELGWLKCRLENIASESTDAILKEARVVASEVTDDDFLDDQIIVRQGRPNNKELQCVQTGNNGSEMGDCGYGVASAGAIGLRYEMFILQNVAPLPLVKEFLSSFSQNTEAAAAAATSNQKLQEFARRYVPRTVVCQNEDLTLTITVNAFDAALTRKSTEENNPFARVHRYFMIRFDLSPSDPLVLGVDVVNSYFLRLDAGSAELVEDIGYLHAADVWKLSQELRVKGSGSSTDSDDTKDNGCVDGSVSSKEHAAEGNVNCMDHNEHEHNPTSHFELSFINPSDGPTIMKGQLYYTLRTKSSASASKMNVGVISFGHILLFNDE”: the “soluble on expression in E. coli” value is “not soluble”.
